# From patent US20180042874A1, “METHOD FOR TREATING OSTEOPOROSIS” (China Medical University, priority 2016, published 2018)
# Assay: Body weight in ovariectomized osteoporosis rat model
# Type: in vivo, Sprague-Dawley (SD) female rats
# Procedure: Inducing osteoporosis animal models and experimental methods: • 1. 6-month old Sprague-Dawley (SD) female rats were purchased; • 2. These rats were divided into 7 groups, of which Group 1 was given pseudo-surgery, Group 2-7 underwent bilateral ovariectomies; • 3. On the 6th day after surgery, 1 mL/kg of vehicle alone was given orally to Group 1, Group 2 daily, Zoledronic Acid and Prolia were administered weekly by injections to Group 3, Group 4, respectively; 1, 3, 10 mg/kg of the compound of formula I was given orally every 3 days to Groups 5-7, respectively; • 4. Body weight and bone density were measured weekly, blood was drawn until the 118th day; • 5. Rats were then sacrificed to obtain kidneys, livers and rat tibia; • 6. Data were consolidated and processed.
Molecule,"effect on body weight (rat, in vivo)",effect on body weight (ovariectomized rats)
"Proliaor: commercially available drug, injected weekly as comparator in ovariectomized rats",increased the body weight,
O=P(O)(O)C(O)(Cn1ccnc1)P(=O)(O)O [Zoledronic acid],,decreased the body weight
